Earlier results as cited in patent US20070032474A1, “Use of a compound of formula 1 for making a pharmaceutical composition” (priority 2003, published 2007).

Molecular target: PKBbeta (Homo sapiens, UniProt P31751)
Conditions: background, reference (5); read-out: AC50 (activation of PKBbeta)

PKBbeta, sequence (P31751 146-460 limits assumed, species assumed): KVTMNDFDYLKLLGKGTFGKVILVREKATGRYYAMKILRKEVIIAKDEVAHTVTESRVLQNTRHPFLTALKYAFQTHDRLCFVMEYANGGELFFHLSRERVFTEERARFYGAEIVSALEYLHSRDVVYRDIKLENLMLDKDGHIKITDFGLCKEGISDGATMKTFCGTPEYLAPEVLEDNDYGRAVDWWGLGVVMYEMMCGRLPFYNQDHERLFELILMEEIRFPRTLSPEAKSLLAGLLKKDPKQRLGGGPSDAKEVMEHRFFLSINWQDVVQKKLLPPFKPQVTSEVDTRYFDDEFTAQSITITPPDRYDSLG

- AC50: 5 µM
Substance: polypeptide NH2-REPRILSEEEQEMFRDFDYIADW-COOH comprising a hydrophobic motif; activates AGC kinases (H-REPRILSEEEQEMFRDFDYIADW-OH) [PIFtide]
